Assay results published in US20040132662A1.

Biological target: Human endothelial cells (ECV304)
Assay: inhibition of endothelial cell adhesion to pepsinized collagen type IV by soluble monomer

| percent inhibition of cell adhesion | Substance |
| --- | --- |
| 50% | recombinant type IV collagen NCl (α2) monomer (from UniProt P08572) |
| 50% | recombinant human type IV collagen NCl (α1) monomer (from UniProt P02462) |
